Where no end group is shown, it is not given here.
What was measured:
[1] = Appearance of 1.5% peptide solutions with various salts at room temperature; assay type: physicochemical; conditions: for Appearance: KLD12 solution, room temperature
Method: The effect of salt ionic strength level on the properties of peptide solutions was evaluated to identify optimized salt ionic strength levels for the peptides as described herein. Increasing the salt ionic strength level of PuraMatrix® and other peptides may generally improve its function and mechanical strength for various clinical applications. To adjust the salt ionic strength of the peptide solutions by way of example, various salt buffer solutions including NaCl, KCl, MgCl2, CaCl2 and DPBS (10×) were added to 2 mL of 1.5% peptide solutions.

[2] = Gelation of peptide solutions after saline buffer treatment, time sweep; assay type: physicochemical; conditions: saline buffer (0.15 M of NaCl); IEIK13 1.5%, KLD12 1.5%, PuraMatrix® 2.5% solution
Method: The effect of salt ionic strength level surrounding peptide solution on the properties of peptide solutions was evaluated to identify the possibility of peptide gelation when the peptide solution is placed into the environment where salt ionic strength level is high. […] Without pH effect, the effect of saline treatment on gelation of peptide solutions were evaluated. […] This is because IEIK13 is much more sensitive to salt ionic strength levels. Fast gelation of IEIK13 at the salt ionic strength level similar to body fluid isotonic salt level may generally improve its function and gelation speed for various clinical applications. The results are shown in FIG. 19 for IEIK13, KLD12 and PuraMatrix® solutions. Time sweep tests were performed at 1 rad/sec and at 1 Pa with 20 mm plates and 500 μm gap distance. […]

For KLDLKLDLKLDL [KLD12], the Appearance ([1]; conc. 1.3%, KCl 0.4 M, ionic strength 0.4 M) was “Cloudy, phase-separated”, the Appearance ([1]; conc. 1.3%, NaCl 0.4 M, ionic strength 0.4 M) was “Cloudy, phase-separated” and the Appearance ([1]; conc. 1.32%, KCl 0.35 M, ionic strength 0.35 M) was “Slightly cloudy, brittle gel”. The Appearance ([1]; conc. 1.32%, NaCl 0.35 M, ionic strength 0.35 M) was “Slightly cloudy, brittle gel”, the Appearance ([1]; conc. 1.35%, KCl 0.3 M, ionic strength 0.3 M) was “Slightly cloudy, thick, stiffer gel” and the Appearance ([1]; conc. 1.35%, NaCl 0.3 M, ionic strength 0.3 M) was “Slightly cloudy, thick, stiffer gel”. For the same sequence, the Appearance ([1]; conc. 1.38%, KCl 0.25 M, ionic strength 0.25 M) was “Clear, thick, stiffer gel”, the Appearance ([1]; conc. 1.38%, NaCl 0.25 M, ionic strength 0.25 M) was “Clear, thick, stiffer gel” and the Appearance ([1]; conc. 1.4%, KCl 0.2 M, ionic strength 0.2 M) was “Clear, thick, stiffer gel”. The Appearance ([1]; conc. 1.4%, NaCl 0.2 M, ionic strength 0.2 M) was “Clear, thick, stiffer gel”, the Appearance ([1]; conc. 1.42%, CaCl2 0.167 M, ionic strength 0.5 M) was “Cloudy, phase-separated” and the Appearance ([1]; conc. 1.42%, MgCl2 0.167 M, ionic strength 0.5 M) was “Cloudy, phase-separated”. The Appearance ([1]; conc. 1.43%, CaCl2 0.133 M, ionic strength 0.4 M) was “Slightly cloudy, thick, stiffer gel”, the Appearance ([1]; conc. 1.43%, CaCl2 0.15 M, ionic strength 0.45 M) was “Slightly cloudy, brittle gel” and the Appearance ([1]; conc. 1.43%, KCl 0.15 M, ionic strength 0.15 M) was “Clear, thick, stiffer gel”. The Appearance ([1]; conc. 1.43%, MgCl2 0.133 M, ionic strength 0.4 M) was “Slightly cloudy, thick, stiffer gel”, the Appearance ([1]; conc. 1.43%, MgCl2 0.15 M, ionic strength 0.45 M) was “Slightly cloudy, brittle gel” and the Appearance ([1]; conc. 1.43%, NaCl 0.15 M, ionic strength 0.15 M) was “Clear, thick, stiffer gel”. For the same sequence, the Appearance ([1]; conc. 1.44%, CaCl2 0.117 M, ionic strength 0.35 M) was “Clear, thick, stiffer gel”, the Appearance ([1]; conc. 1.44%, MgCl2 0.117 M, ionic strength 0.35 M) was “Clear, thick, stiffer gel” and the Appearance ([1]; conc. 1.45%, CaCl2 0.1 M, ionic strength 0.3 M) was “Clear, thick, stiffer gel”. The Appearance ([1]; conc. 1.45%, KCl 0.1 M, ionic strength 0.1 M) was “Clear, thick, stiffer gel”, the Appearance ([1]; conc. 1.45%, MgCl2 0.1 M, ionic strength 0.3 M) was “Clear, thick, stiffer gel” and the Appearance ([1]; conc. 1.45%, NaCl 0.1 M, ionic strength 0.1 M) was “Clear, thick, stiffer gel”. The Appearance ([1]; conc. 1.46%, CaCl2 0.083 M, ionic strength 0.25 M) was “Clear, thick, stiffer gel”, the Appearance ([1]; conc. 1.46%, MgCl2 0.083 M, ionic strength 0.25 M) was “Clear, thick, stiffer gel” and the Appearance ([1]; conc. 1.47%, CaCl2 0.067 M, ionic strength 0.2 M) was “Clear, thick, stiffer gel”. For the same sequence, the Appearance ([1]; conc. 1.47%, MgCl2 0.067 M, ionic strength 0.2 M) was “Clear, thick, stiffer gel”, the Appearance ([1]; conc. 1.48%, CaCl2 0.05 M, ionic strength 0.15 M) was “Clear, thick, stiffer gel” and the Appearance ([1]; conc. 1.48%, KCl 0.05 M, ionic strength 0.5 M) was “Clear, thick, stiffer gel”. For the same sequence, the Appearance ([1]; conc. 1.48%, MgCl2 0.05 M, ionic strength 0.15 M) was “Clear, thick, stiffer gel”, the Appearance ([1]; conc. 1.48%, NaCl 0.05 M, ionic strength 0.5 M) was “Clear, thick, stiffer gel” and the Appearance ([1]; conc. 1.5%, CaCl2 0 M, ionic strength 0 M) was “Clear, thick gel”. The Appearance ([1]; conc. 1.5%, KCl 0 M, ionic strength 0 M) was “Clear, thick gel”, the Appearance ([1]; conc. 1.5%, MgCl2 0 M, ionic strength 0 M) was “Clear, thick gel” and the Appearance ([1]; conc. 1.5%, NaCl 0 M, ionic strength 0 M) was “Clear, thick gel”. For the same sequence, the “salt ionic strength increase that did not change the clear color of the solution (apparent stiffness increased)” value ([1]; depending on different salts, 1.5% peptide solutions) was 0.25˜0.35 M and the “gelation after saline buffer treatment” value [2] was “no or negligible gelation”.

From US10245299B2, “Autoassembling peptides for the treatment of pulmonary bulla” (3-D MATRIX, LTD., priority 2014, dated 2019)
